This passage reports binding result and EC50 results from patent publication US20240158517A1 (HIFIBIO HK, published 2024).

For test [1], the target named is T1, human CXCR5 (human, UniProt P32302 1-372).
T1 construct: whole, on cells; Always presented on cells; one entry is used for all cell lines; also called hCXCR5; C-X-C chemokine receptor type 5
T1 sequence (looked up): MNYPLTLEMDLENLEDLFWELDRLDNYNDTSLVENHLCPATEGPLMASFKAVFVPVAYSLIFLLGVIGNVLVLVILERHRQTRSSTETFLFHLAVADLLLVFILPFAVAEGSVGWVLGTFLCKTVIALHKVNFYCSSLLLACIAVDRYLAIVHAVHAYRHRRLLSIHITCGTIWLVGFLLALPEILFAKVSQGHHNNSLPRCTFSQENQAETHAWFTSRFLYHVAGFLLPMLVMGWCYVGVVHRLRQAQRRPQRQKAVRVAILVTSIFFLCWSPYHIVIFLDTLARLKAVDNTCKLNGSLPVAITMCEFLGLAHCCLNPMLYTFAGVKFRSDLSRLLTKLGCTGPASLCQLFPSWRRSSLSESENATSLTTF
Description: flow cytometry on Raji cells, binding percentage, antibody at 1 nM and 0.1 nM. In general terms: Flow cytometry measures light scatter and fluorescence of single cells or particles in a stream.
Description: Binding properties of these 36 humanized variants were tested in binding assay to Raji cells at two different concentrations, 1 nM and 0.1 nM.

In test [2] the target is T1, human CXCR5. Description: binding to DX002 cells expressing CXCR5.
Test [3] deals with T1, human CXCR5. Description: flow cytometry on adherent DX002 cells expressing CXCR5, MFI.
Test [4] addresses T1, human CXCR5. Description: flow cytometry on an adherent stable cell line expressing hCXCR5, MFI normalized on the benchmark MFI.
Description: In order to test the binding capacity to CXCR5, six chimeric monoclonal antibodies were tested in binding assay using adherent stable cell line expressing the target antigen hCXCR5.
In another test the target is T2, murine CXCR5 (mouse, UniProt Q04683 1-374).
T2 construct: whole, on cells; also called mouse CXCR5 ortholog
T2 sequence (looked up): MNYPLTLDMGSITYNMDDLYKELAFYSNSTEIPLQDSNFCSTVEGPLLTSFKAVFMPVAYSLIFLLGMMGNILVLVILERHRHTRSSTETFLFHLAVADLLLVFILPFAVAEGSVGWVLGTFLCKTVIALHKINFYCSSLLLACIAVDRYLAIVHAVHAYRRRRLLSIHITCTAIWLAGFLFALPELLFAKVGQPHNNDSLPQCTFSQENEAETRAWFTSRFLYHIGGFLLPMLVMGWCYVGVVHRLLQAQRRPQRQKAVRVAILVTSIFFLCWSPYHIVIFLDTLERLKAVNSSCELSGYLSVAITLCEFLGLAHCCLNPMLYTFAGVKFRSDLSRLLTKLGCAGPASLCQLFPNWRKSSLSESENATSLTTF
Description: flow cytometry on cells transiently transfected with murine CXCR5.

The next test has as its target T3, human CXCR3 (human, UniProt P49682 1-368, limits assumed).
T3 construct: also called hCXCR3
T3 sequence (looked up): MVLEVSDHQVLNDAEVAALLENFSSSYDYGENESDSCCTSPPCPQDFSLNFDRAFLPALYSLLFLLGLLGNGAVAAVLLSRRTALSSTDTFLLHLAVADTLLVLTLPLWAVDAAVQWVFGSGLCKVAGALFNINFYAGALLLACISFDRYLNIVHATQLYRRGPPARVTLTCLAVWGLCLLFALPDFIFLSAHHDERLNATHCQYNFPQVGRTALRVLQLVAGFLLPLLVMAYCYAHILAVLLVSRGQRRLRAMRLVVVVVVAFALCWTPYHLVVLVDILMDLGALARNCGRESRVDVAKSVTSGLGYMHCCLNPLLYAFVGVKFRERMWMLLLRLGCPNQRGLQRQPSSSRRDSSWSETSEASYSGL
Description: flow cytometry (MFI) on hCXCR3.

The target of test [5] is T1, human CXCR5. Description: binding to hCXCR5, Exp 2 (assay not given).
The target in test [6] is T1, human CXCR5. Briefly: binding to hCXCR5, Exp 1 (assay not given).

Where a chain is given by its changes, count along the chain named. In names and notes the source's numbering stands.

B1: HFB2-VH10VL7 (antibody, V domains shown)
VH: QVQLVQSGAEVKKPGASVKVSCKASGFSLTSYGVSWVRQAPGQGLEWMGVIWGDGSTNYAQKLQGRVTMTKDTSTSTAYMELRSLRSDDTAVYYCARVVYWGQGTLVTVSS
VL: DIVMTQSPDSLAVSLGERATINCRSSKSLLHSNGKTYLYWFQQKPGQSPKLLLYRMSNLASGVPDRFSGSGSGTDFTLTISSLQAEDVAVYYCMQHLEYPYTFGQGTKLEIK
Turning to B1, in the test with human CXCR5 [1], the binding result is reported as “binds”.

B2: HFB2-4hz42hG1DE (antibody, V domains shown)
VH: B1 VH
VL: EIVMTQSPATLSVSPGERATLSCRSSKSLLHSNGKTYLYWFQQKPGQAPRLLIYRMSNLASGIPARFSGSGSGTEFTLTISSVQSEDVAVYYCMQHLEYPYTFGQGTKLEIK
notes: Humanized (VH10/VL6) in hG1DE format
As for B2, the EC50 – broadly, the concentration giving half of the maximal effect – with human CXCR5 [2] came to 0.171 nM; in the test with human CXCR5 [3], 0.123 nM.

B3: HFB2-VH8VL4 (antibody, V domains shown)
VH: QVQLVESGGGVVQPGRSLRLSCAVSGFSLTSYGVSWVRQAPGKGLEWLGVIWGDGSTNYHSGLISRLTISKDNSKNTVYLQMNSLRAEDTAVYYCARVVYWGQGTLVTVSS
VL: DIQMTQSPSSLSASVGDRVTITCRSSKSLLHSNGKTYLYWFQQKPGKAPKLLIYRMSNLASGVPSRFSGSGSGTDFTLTISSLQPEDFATYYCMQHLEYPYTFGGGTKVEIK
With B3, the binding result in the test with human CXCR5 [1] is given as “binds”.

B4: HFB2-VH10VL4 (antibody, V domains shown)
VH: B1 VH
VL: B3 VL
Regarding B4, the binding result with human CXCR5 [1] was “binds”.

B5: HFB2-4hz41hG1 (antibody, V domains shown)
VH: B3 VH
VL: B1 VL
notes: Humanized, human IgG1 (hG1); also called HFB2-VH8VL7
With B5, the binding result with human CXCR5 [1] is listed as “binds”.

B6: HFB2-VH8VL6 (antibody, V domains shown)
VH: B3 VH
VL: B2 VL
Regarding B6, the binding result with human CXCR5 [1] is given as “binds”.

B7: HFB2-6-hG1 (antibody, V domains shown)
VH: QIQLQQSGPELVEPGASVKLSCKASGYTFTDYTIHWVKQSPGQGLEWIGWIYPGSGNIKYNDKFKGKATMTADKSSSTAYMQLSSLTSEDSAVYFCARGLRREFAYWGQGTLVTVSA
VL: DIVMTQAAFSNPVTLGTSASISCRSSKSLLHSNGITYLYWYLQKPGQSPQLLIYQMSNLASGVPDRFSSSGSGTDFTLRISRVEAEDVGVYYCAQSLELPLTFGAGTKLELK
notes: Mouse-human chimeric antibody, human IgG1 constant region
B7 had a 50% effective concentration (EC50) with human CXCR5 [4] of 0.5 nM. Moreover, the binding result in the test with murine CXCR5 and in the test with human CXCR3 was “no binding (tested: about 150 nM)” throughout.

B8: HFB2-4hz14-hG1DE (antibody, V domains shown)
VH: QVQLQESGPGLVKPSETLSLTCTVSGFSLTSYGVSWVRQPPGKGLEWIGVIWGDGSTNYNPSLKSRVTISKDTSKNQVSLKLSSVTAADTAVYYCARVVYWGQGTLVTVSS
VL: DIVMTQSPLSLPVTPGEPASISCRSSQSLLHSNGYNYLYWFLQKPGQSPQLLIYRGSNRASGVPDRFSGSGSGTDFTLKISRVEAEDVGVYYCMQHLQYPYTFGGGTKVEIK
notes: Humanized (VH3/VL1b), human IgG1 with S239D/I332E (hG1DE)
B8: the EC50 is 0.1 nM with human CXCR5 [5] and 0.4 nM with human CXCR5 [6].

B9: HFB2-4hz12-hG1DE (antibody, V domains shown)
VH: B8 VH
VL: B3 VL
notes: Humanized (VH3/VL4), human IgG1 with S239D/I332E (hG1DE); also called HFB2-4hz12hIgDE
On to B9, for which the half-maximal effective concentration (EC50) was found to be 0.3 nM with human CXCR5 [5] and 1.2 nM in the test with human CXCR5 [6].

B10: HFB2-4hz37hG1DE (antibody, V domains shown)
VH: B8 VH
VL: B2 VL
notes: Humanized (VH3/VL6) produced in hG1DE format (human IgG1, S239D/I332E)
In the case of B10, the figures for the EC50 in the test with human CXCR5 [2] and with human CXCR5 [3] were 0.099 nM and 0.0785 nM, respectively.

B11: HFB2-4hz38hG1DE (antibody, V domains shown)
VH: B8 VH
VL: B1 VL
notes: Humanized (VH3/VL7) in hG1DE format
Take B11: the EC50 was found to be 0.106 nM with human CXCR5 [2] and 0.0878 nM with human CXCR5 [3].

B12: HFB2-4hz39hG1DE (antibody, V domains shown)
VH: B8 VH with E16G, T23A, V67L, T73K
VL: B2 VL
notes: Humanized (VH6/VL6) in hG1DE format
Consider B12, for which the EC50 with human CXCR5 [2] was 0.26 nM; with human CXCR5 [3], 0.232 nM.

B13: HFB2-VH6VL4 (antibody, V domains shown)
VH: B8 VH with E16G, T23A, V67L, T73K
VL: B3 VL
Take B13: in the test with human CXCR5 [1], the binding result is listed as “binds”.

B14: HFB2-4hz15-hG1DE (antibody, V domains shown)
VH: B8 VH
VL: B8 VL with A19I, I21L, Q27K, Y35K, N36T, I53L, G56M, R59L, Q98E, V109L
notes: Humanized (VH3/VL1c), human IgG1 with S239D/I332E (hG1DE)
For the molecule B14, the half-maximal effective concentration (EC50) turned out to be 0.05 nM with human CXCR5 [5] and 0.6 nM with human CXCR5 [6].

B15: HFB2-VH6VL7 (antibody, V domains shown)
VH: B8 VH with E16G, T23A, V67L, T73K
VL: B1 VL
As for B15, the binding result with human CXCR5 [1] is on record as “binds”.

B16: HFB2-4-hG1 (antibody, V domains shown)
VH: QVQLKESGPGLVAPSQSLSITCTVSGFSLTSYGVSWVRQPPGKGLEWLGVIWGDGSTNYHSGLISRLSISKDNSKSQVFLKLNSLQSDDTATYYCARVVYWGQGTLVTVSA
VL: DIVMTQAAPSVPVTPGESISISCRSSKSLLHSNGKTYLYWFLQRPGQSPQLLLYRMSNLASGVPDRFSGSGSGTAFTLRISRVEAEDVGVYYCMQHLEYPYTFGGGTKLEIK
notes: Mouse-human chimeric antibody, human IgG1 constant region; also called parental
B16 displayed a concentration giving a half-maximal response (EC50) with human CXCR5 [4] of 0.924 nM. Also, the binding result with murine CXCR5 and in the test with human CXCR3 was “no binding (tested: about 150 nM)” in each case.
